Values of other authors, collected in patent US5874218.

Test system: T1, VEGF165 (Homo sapiens), P15692-4
T1 sequence: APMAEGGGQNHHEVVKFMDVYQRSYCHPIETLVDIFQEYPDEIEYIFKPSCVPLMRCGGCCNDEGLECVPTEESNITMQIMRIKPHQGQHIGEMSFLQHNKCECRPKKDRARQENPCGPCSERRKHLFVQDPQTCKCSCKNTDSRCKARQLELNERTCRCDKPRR
Conditions: modified to be nuclease resistant (Green et al. 1995); CITED; value stated for the ligand with reference to Green et al. 1995

NTTTTACCCUGAUGGUAGACGCCGGGGUGTTTTT [NX-244]
Kd: 0.14 nM
